Test results published in patent publication US20190144550A1 (Pfizer, published 2019).

Columns and labels:
EGFR-mFc = target: T1, EGFR-mFc (human; mouse, UniProt P00533 25-645); experiment: flow cytometry, CAR T cells stained with mFc fusion protein, Day 4
T1 construct: extracellular domain; Produced in HEK293 cells; also called recombinant EGFR-mFc; not shown: mouse IgG1-Fc domain
From the text: To determine target binding specificity of the CARs, recombinant proteins EGFRvII-mFc and EGFR-mFc, which comprise of the extracellular domain of either human EGFRvIII or human wild-type EGFR, respectively, fused with mouse IgG1-Fc domain, were produced in HEK293 cells. […]

[1] = target: T2, Monomeric 8-histidine tagged human EGFRvIII extracellular domain (human, UniProt P00533 298-645); experiment: SPR, captured by anti-human Fc, 25 C
T2 construct: Analyte in all SPR assays; not shown: 8-histidine tag
Procedure: Human anti-EGFRvIII antibodies were sequenced and subcloned into suitable vectors for expression as recombinant human IgG1 antibodies. […] (Table 9) on a surface plasmon resonance Biacore™ T200 biosensor equipped with an anti-human Fc coupled CM4 sensor chip (GE Healthcare Inc., Piscataway, N.J.). Anti-EGFRvII antibodies were captured by anti-human Fc. Monomeric 8-histidine tagged human EGFRvIII extracellular domain was then injected as the analyte at 10-fold dilution series starting at 1000 nM.

[2] = target: T3, 8-histidine tagged recombinant wild-type protein EGFRwt (UniProt P00533 25-645, limits assumed); experiment: SPR, captured by anti-human Fc
T3 construct: not shown: 8-histidine tag

[3] = target: T2, Monomeric 8-histidine tagged human …; experiment: SPR, captured by anti-human Fc, 25 C; remark: listed apart in the source
From the text: (§1) Anti-EGFRvII mouse (m) antibody, m62G7, generated from hybridomas was sequenced and subcloned into suitable vectors for expression as murine-human chimeric antibodies. The CDRs of mouse antibody m62G7 were grafted onto human framework and expressed as human IgG1 recombinant antibody, h62G7. Affinity variants of h62G7 were made by introducing mutations in the CDRs of the heavy and light chains. The affinities of recombinant anti-EGFRvIII chimeric antibody m62G7 and humanized h62G7 antibodies were measured on a surface plasmon resonance Biacore™ T200 biosensor equipped with a research-grade anti-human Fc coupled CM4 sensor chip (GE Healthcare Inc., Piscataway, N.J.). Anti-EGFRvII antibodies were then captured by anti-human Fc. Monomeric 8-histidine tagged human EGFRvIII extracellular domain was then injected as the analyte at 10-fold dilution series with top concentration at 1000 nM. Affinity of anti-EGFRvIII antibodies towards human EGFRvIII was measured at both 25° C. and 37° C.

[4] = target: T2, Monomeric 8-histidine tagged human …; experiment: SPR, captured by anti-human Fc, 37 C
From the text: as §1

Row | Binder | binding result (EGFR-mFc) | Kd [1] [nM] | koff [1] [s⁻¹] | kon [1] [M⁻¹ s⁻¹] | binding result [2] | Kd [3] [nM] | koff [3] [s⁻¹] | kon [3] [M⁻¹ s⁻¹] | Kd [4] [nM] | koff [4] [s⁻¹] | kon [4] [M⁻¹ s⁻¹]
1 | 26B9 EGFRvIII specific CAR (other, Chimeric antigen receptor on primary human T cells) EVQLVESWGVLVKPGGSLRLSCAASGFIFNNAWMSWVRQAPGKGLEWIGRIKSKSDGGTTDYAAPVKDRFTISRDDSKDTLYLQMNGLKTEDTAVYFCTTAPGGPFDYWGQGTLVTVSSGGGGSGGGGSGGGGSGGGGSDIVLTQSPLSLPVTPGEPASISCRSSQSLLHRDGFNYLDWFLQKPGQSPQLLIYLASSRASGVPDRFSGSDSGTDFTLKISRVEAEDVGVYYCMQALQTPITFGQGTRLEIKTTTPAPRPPTPAPTIASQPLSLRPEACRPAAGGAVHTRGLDFACDIYIWAPLAGTCGVLLLSLVITLYCKRGRKKLLYIFKQPFMRPVQTTQEEDGCSCRFPEEEEGGCELRVKFSRSADAPAYQQGQNQLYNELNLGRREEYDVLDKRRGRDPEMGGKPRRKNPQEGLYNELQKDKMAEAYSEIGMKGERRRGKGHDGLYQGLSTATKDTYDALHMQALPPR | no binding | – | – | – | – | – | – | – | – | – | –
2 | B5 (antibody, V domains shown, From a phage library; recombinant human IgG1) VH: EVQLLESGGGLVQPGGSLRLSCAASGFTFSNYAMSWVRQAPGKGLEWVSDISGGGGRTYYADSVKGRFTISRDNSKNTLYLQMNSLRAEDTAVYYCARAGLLYGGGVYPMDIWGQGTLVTVSS VL: not shown | – | 678 | 0.0141 | 20800 | – | – | – | – | – | – | –
3 | C6 (antibody, V domains shown, From a phage library; recombinant human IgG1) VH: QVQLVQSGAEVKKPGSSVKVSCKASGDTFSSNAISWVRQAPGQGLEWMGVIIPIFGTADYAQKFQGRVTITADESTSTAYMELSSLRSEDTAVYYCARHTYHEYAGGYYGGAMDPWGQGTLVTVSS VL: not shown | – | 532 | 0.00894 | 16800 | – | – | – | – | – | – | –
4 | h62G7-EQ/L6 (antibody, V domains shown, Humanized, human IgG1 recombinant antibody; also called h62G7-L6/EQ) VH: QVQLVQSGAEVKKPGASVKVSCKASGYTFTDYTLHWVRQAPGQGLEWMGGIWPITGGTTYNQKFKGRVTMTRDTSTSTVYMELSSLRSEDTAVYYCARGEAQGSWGQGTLVTVSS VL: DVVMTQSPLSLPVTLGQPASISCKSSQSLLYSNGKTYLNWFQQRPGQSPRRLIYQVSKLDSGVPDRFSGSGSGTDFTLKISRVEAEDVGVYYCGQDTHFPLTFGGGTKVEIK | – | – | – | – | no binding (tested: 1000 nM) | 43.8 | 0.01 | 240000 | 113 | 0.074 | 660000
5 | h62G7-H14/L1-DV (antibody, V domains shown, Humanized, human IgG1 recombinant antibody) VH: QVQLVQSGAEVKKPGASVKVSCKASGYTFTDYTLHWVRQAPGQGLEWMGGIWPITGGTTYNQKFKGRVTMTRDTSTSTVYMELSSLRSEDTAVYYCARGEAEGSWGQGTLVTVSS VL: DVVMTQSPLSLPVTLGQPASISCKSSQSLLYSNDKTYTNWFQQRPGQSPRRLIYEVSKLDVGVPDRFSGSGSGTDFTLKISRVEAEDVGVYYCGQDTHFPLTFGGGTKVEIK | – | – | – | – | no binding (tested: 1000 nM) | 1090 | 0.02 | 18000 | 1540 | 0.1 | 66000
6 | 30D8 EGFRvIII specific CAR (other, Chimeric antigen receptor on primary human T cells) EVQLVESGGGLVKPGGSLRLSCEASGFTFSDAWMSWVRQAPGKGLEWVGRIKSKTDGGTTDYVVPLNGRFIISRDDSRNTLYLQLNNLKTEDTAVYYCTTVPGSYGYWGQGTLVTVSSGGGGSGGGGSGGGGSGGGGSDIVMTQSPLSLPVTPGEPASISCRSSQSLLHNKRNNYLDWFLQKPGQSPQLLIYLASNRASGVPDRFSGGGSGTDFTLKISRVEAEDVGVYYCMQAQQTPITFGQGTRLEIKTTTPAPRPPTPAPTIASQPLSLRPEACRPAAGGAVHTRGLDFACDIYIWAPLAGTCGVLLLSLVITLYCKRGRKKLLYIFKQPFMRPVQTTQEEDGCSCRFPEEEEGGCELRVKFSRSADAPAYQQGQNQLYNELNLGRREEYDVLDKRRGRDPEMGGKPRRKNPQEGLYNELQKDKMAEAYSEIGMKGERRRGKGHDGLYQGLSTATKDTYDALHMQALPPR | no binding | – | – | – | – | – | – | – | – | – | –
7 | m62G7 (antibody, V domains shown, Tested as murine-human chimeric antibody, captured by anti-human Fc; also called recombinant anti-EGFRvIII chimeric antibody m62G7) VH: EVQLQQSGPELVKPGASVKISCKTSGYTFTDYTLHWVKQSHVKSLEWIGGIDPINGGTTYNQKFKGKATLTVDKSSSTAYMELRSLTSEDSAVYYCARGEAMDSWGQGTSVTVSS VL: not shown | – | – | – | – | no binding (tested: 1000 nM) | 88.7 | 0.064 | 730000 | 207 | 0.17 | 800000
